The target in this experiment is E glycoprotein of DENV2-FL-Mature (fusion loop N103S and G106L), on virus (Dengue virus serotype 2, strain S16803 (engineered)) (UniProt P18356). The experiment in a line: cell-based or functional assay.

Turning to 1M7 (antibody), the neutralization (FRNT, EC50) (logs (reduction against DENV2)) came out at 2.

(Values after patent US20250188130A1.)
